From article PMC9352546, “The Casein kinase 1α agonist pyrvinium attenuates Wnt-mediated CK1α degradation via interaction with the E3 ubiquitin ligase component Cereblon” (The Journal of Biological Chemistry, 2022)

Biological target: T1, FLAG-tagged Cereblon (CRBN) (human, UniProt Q96SW2-2 1-441)
T1 construct: also called FLAG-CRBN; Wnt-modulated CRBN; source: HEK293T, transfected (pcDNA3.1(+)), cells treated with PBS or Wnt3a, immunopurified from lysate on beads
Experiment: pull-down; FLAG-CRBN immunopurified from PBS- or Wnt3a-treated (4 h) HEK293T cells, held on BSA-blocked beads; GST-CK1α preincubated with DMSO or pyrvinium at 4 °C for 10 min, then incubated with the beads in binding buffer at 4 °C for 1 h; one 5-min wash; elution in Laemmli buffer, immunoblot
Conditions: both partners purified

T1 sequence (Q96SW2 other isoform, or with tags, fused parts or gaps): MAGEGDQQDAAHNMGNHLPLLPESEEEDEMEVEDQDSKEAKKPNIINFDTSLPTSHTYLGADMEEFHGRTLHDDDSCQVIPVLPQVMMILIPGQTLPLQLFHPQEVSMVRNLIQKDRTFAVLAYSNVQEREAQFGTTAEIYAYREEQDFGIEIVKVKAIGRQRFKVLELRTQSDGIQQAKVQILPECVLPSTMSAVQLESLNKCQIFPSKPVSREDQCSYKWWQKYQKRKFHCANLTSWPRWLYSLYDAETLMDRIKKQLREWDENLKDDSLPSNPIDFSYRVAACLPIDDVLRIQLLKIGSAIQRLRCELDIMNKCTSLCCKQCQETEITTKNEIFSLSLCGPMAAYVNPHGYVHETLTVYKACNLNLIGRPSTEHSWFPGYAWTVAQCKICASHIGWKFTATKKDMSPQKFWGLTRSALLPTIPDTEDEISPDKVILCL

B1: Recombinant human glutathione-S-transferase (GST)-CK1α protein (natural protein, UniProt P48729-1 1-337, looked up)
chain: MASSSGSKAEFIVGGKYKLVRKIGSGSFGDIYLAINITNGEEVAVKLESQKARHPQLLYESKLYKILQGGVGIPHIRWYGQEKDYNVLVMDLLGPSLEDLFNFCSRRFTMKTVLMLADQMISRIEYVHTKNFIHRDIKPDNFLMGIGRHCNKLFLIDFGLAKKYRDNRTRQHIPYREDKNLTGTARYASINAHLGIEQSRRDDMESLGYVLMYFNRTSLPWQGLKAATKKQKYEKISEKKMSTPVEVLCKGFPAEFAMYLNYCRGLRFEEAPDYMYLRQLFRILFRTLNHQYDYTFDWTMLKQKAAQQAASSSGQGQQAQTPTGKQTDKTKSNMKGF
notes: Preincubated with DMSO or pyrvinium before it was added to the FLAG-CRBN beads; also called GST-tagged CK1α; recombinant CK1α; source: Sf9 insect cells, purified (GenScript)
binding result: binds
